Measurements as given in patent publication US20240376151A1, “STAPLED PEPTIDES AND METHODS THEREOF” (FOG PHARMACEUTICALS, INC., priority 2022, published 2024).

Molecular target: T1, beta-catenin (Homo sapiens, UniProt P35222)
T1 construct: made in house; host or cells: E. coli BL21 (DE3) pLysS
T1 sequence (P35222 134-665): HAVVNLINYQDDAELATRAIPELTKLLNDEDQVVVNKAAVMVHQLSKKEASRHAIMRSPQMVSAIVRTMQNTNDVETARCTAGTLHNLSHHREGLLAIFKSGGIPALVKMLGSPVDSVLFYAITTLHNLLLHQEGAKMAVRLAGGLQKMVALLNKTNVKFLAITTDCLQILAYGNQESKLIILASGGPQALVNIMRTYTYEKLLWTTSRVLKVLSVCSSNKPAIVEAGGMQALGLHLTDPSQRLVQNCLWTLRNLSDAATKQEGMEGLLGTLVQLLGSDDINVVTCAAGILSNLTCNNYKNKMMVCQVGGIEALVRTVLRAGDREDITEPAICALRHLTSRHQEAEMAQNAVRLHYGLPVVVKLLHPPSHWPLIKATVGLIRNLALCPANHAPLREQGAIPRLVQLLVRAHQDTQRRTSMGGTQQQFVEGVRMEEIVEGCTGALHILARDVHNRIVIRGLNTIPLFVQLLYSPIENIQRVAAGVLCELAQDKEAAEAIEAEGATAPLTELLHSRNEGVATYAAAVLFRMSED
Test: Phage Library Screening with NGS, beta-catenin
Type: binding
Settings: for Target Concentration 10 (phage screen NGS readout): beta-catenin target concentration 10; for Target Concentration 10 (phage screen NGS readout) / Target Concentration 30 (phage screen NGS readout) / Target Concentration 100 (phage screen NGS readout) / Target Concentration 300 (phage screen NGS readout): no competitor; for Target Concentration 30 (phage screen NGS readout): beta-catenin target concentration 30; for Target Concentration 100 (phage screen NGS readout): beta-catenin target concentration 100; for Target Concentration 300 (phage screen NGS readout): beta-catenin target concentration 300; for Target Concentration 1000 (phage screen NGS readout): beta-catenin target concentration 1000

Sequence	Target Concentration BLANK (phage screen NGS readout) (first column)	Target Concentration BLANK (phage screen NGS readout) (fourth column)	Target Concentration BLANK (phage screen NGS readout) (second column)	Target Concentration BLANK (phage screen NGS readout) (third column)	Target Concentration 10 (phage screen NGS readout)	Target Concentration 30 (phage screen NGS readout)	Target Concentration 100 (phage screen NGS readout)	Target Concentration 300 (phage screen NGS readout)	Target Concentration 1000 (phage screen NGS readout) (first 1000 column)	Target Concentration 1000 (phage screen NGS readout) (second 1000 column)
DPAVMACYEAAFQCAYW	0	0	0	1	0	0	0	4	12	0
DPAEWDCMHAALICEVH	0	0	0	0	0	10	55	54	67	89
DPAADDCVLAAHVCAYF	7	0	1	0	8	46	144	397	407	343
DPAWWQCDHAALICIAE	0	0	1	2	28	127	422	637	830	731
DPAWSDCIWAAEHCQLI	0	0	1	0	0	3	5	127	109	85
DPAQSDCDWAAEHCNLI	0	0	0	0	0	1	0	23	9	57
DPAHLMCHYAAWDCRDE	0	0	0	0	0	0	11	13	12	23
DPAALSCYQAAFHCQYY	0	0	0	0	0	0	1	5	14	17
DPAFESCFLAAHICYWE	0	0	0	0	2	0	10	7	18	16
DPADTECILAAHFCHYF	0	0	2	0	0	1	39	81	78	49
DPAYTYCQWAAEHCSLL	2	2	2	1	5	5	3	88	115	137
DPAEAICILAAHECWWD	0	0	0	0	19	38	139	235	322	228
DPAMWICEHAALNCEIR	0	0	0	0	2	6	46	158	145	152

Other lines, results leading:

Target Concentration BLANK (phage screen NGS readout) (first column)	Target Concentration BLANK (phage screen NGS readout) (fourth column)	Target Concentration BLANK (phage screen NGS readout) (second column)	Target Concentration BLANK (phage screen NGS readout) (third column)	Target Concentration 10 (phage screen NGS readout)	Target Concentration 30 (phage screen NGS readout)	Target Concentration 100 (phage screen NGS readout)	Target Concentration 300 (phage screen NGS readout)	Target Concentration 1000 (phage screen NGS readout) (first 1000 column)	Target Concentration 1000 (phage screen NGS readout) (second 1000 column)	Sequence
0	0	1	0	0	2	6	15	12	14	DPADWICEHAALTCQEF
0	0	0	2	13	6	51	132	140	149	DPAHWRCEHAALLCWYN
0	0	0	0	0	2	2	3	11	9	DPARMTCYEAAFRCQYY
0	0	0	0	0	0	11	33	33	27	DPAEWICEHAALLCSVL
0	0	0	2	0	0	7	39	25	93	DPAAQRCTWAAIHCELI
0	1	1	4	0	6	118	266	325	417	DPAIADCDWAAEHCDLL
